The record followed here is US6812337 (GOVERNING COUNCIL OF THE UNIVERSITY OF TORONTO, dated 2004).

Experiment [1] has as its target T1, V5-tagged human Presenilin Associated Membrane Protein (PAMP) (human, UniProt Q92542 34-709).
T1 construct: Expressed by transfection in HEK293 cells or murine embryonic fibroblasts and tested by co-immunoprecipitation from detergent lysates; Glycosylated (~110 kDa, ~80 kDa after Endo H); also called V5-PAMP; V5-tagged-PAMP
Kind of experiment: immunoprecipitation from cell lysates, Western blot.

Experiment [2] has as its target wild type human presenilin-1 (PS1) (human, UniProt P49768 1-467). Kind of experiment: cell-based or functional assay.

B1: calnexin (other, UniProt P27824 21-592, looked up)
chain: HDGHDDDVIDIEDDLDDVIEEVEDSKPDTTAPPSSPKVTYKAPVPTGEVYFADSFDRGTLSGWILSKAKKDDTDDEIAKYDGKWEVEEMKESKLPGDKGLVLMSRAKHHAISAKLNKPFLFDTKPLIVQYEVNFQNGIECGGAYVKLLSKTPELNLDQFHDKTPYTIMFGPDKCGEDYKLHFIFRHKNPKTGIYEEKHAKRPDADLKTYFTDKKTHLYTLILNPDNSFEILVDQSVVNSGNLLNDMTPPVNPSREIEDPEDRKPEDWDERPKIPDPEAVKPDDWDEDAPAKIPDEEATKPEGWLDDEPEYVPDPDAEKPEDWDEDMDGEWEAPQIANPRCESAPGCGVWQRPVIDNPNYKGKWKPPMIDNPSYQGIWKPRKIPNPDFFEDLEPFRMTPFSAIGLELWSMTSDIFFDNFIICADRRIVDDWANDGWGLKKAADGAAEPGVVGQMIEAAEERPWLWVVYILTVALPVFLVILFCCSGKKQTSGMEYKKTDAPQPDVKEEEEEKEEEKDKGDEEEEGEEKLEEKQKSDAEEDGGTVSQEEEDRKPKAEEDEILNRSPRNRKPRRE
notes: whole, on cells; The only named member of 'other ER-resident proteins'; also called other ER-resident proteins (e.g., calnexin)
Regarding B1, the binding result in experiment [1] is given as “no binding”.

B2: PAMPΔ312-340 (other, not shown: small tags and cut ends)
chain: NSVERKIYIPLNKTAPCVRLLNATHQIGCQSSISGDTGVIHVVEKEEDLQWVLTDGPNPPYMVLLESKHFTRDLMEKLKGRTSRIAGLAVSLTKPSPASGFSPSVQCPNDGFGVYSNSYGPEFAHCREIQWNSLGNGLAYEDFSFPIFLLEDENETKVIKQCYQDHNLSQNGSAPTFPLCAMQLFSHMHAVISTATCMRRSSIQSTFSINPEIVCDPLSDYNVWSMLKPINTTGTLKPDDRVVVAATRLDSRSFFWNVAPGAESAVASFVTQLAAAEASRMVYDMEKGKFPVQLENVDSFVELGQVALRTSLELWMHTDPVSQKNESVRNQVEDLLATLEKSGAGVPAVILRRPNQSQPLPPSSLQRFLRARNISGVVLADHSGAFHNKYYQSIYDTAENINVSYPEWLSPEEDLNFVTDTAKALADVATVLGRALYELAGGTNFSDTVQADPQTVTRLLYGFLIKANNSWFQSILRQDLRSYLGDGPLQHYIAVSSPTNTTYVVQYALANLTGTVVNLTREQCQDPSKVPSENKDLYEYSWVQGPLHSNETDRLPRCVRSTARLARALSPAFELSQWSSTEYSTWTESRWKDIRARIFLIASKELELITLTVGFGILIFSLIVTYCINAKADVLFIAPREPGAVSY
Turning to B2, the “Aβ42/Aβ40 Ratio” value in experiment [2] was 0.59 normalized to mock transfection.

B3: PAMPΔ312-369 (other, not shown: small tags and cut ends)
chain: NSVERKIYIPLNKTAPCVRLLNATHQIGCQSSISGDTGVIHVVEKEEDLQWVLTDGPNPPYMVLLESKHFTRDLMEKLKGRTSRIAGLAVSLTKPSPASGFSPSVQCPNDGFGVYSNSYGPEFAHCREIQWNSLGNGLAYEDFSFPIFLLEDENETKVIKQCYQDHNLSQNGSAPTFPLCAMQLFSHMHAVISTATCMRRSSIQSTFSINPEIVCDPLSDYNVWSMLKPINTTGTLKPDDRVVVAATRLDSRSFFWNVAPGAESAVASFVTQLAAAEALRTSLELWMHTDPVSQKNESVRNQVEDLLATLEKSGAGVPAVILRRPNQSQPLPPSSLQRFLRARNISGVVLADHSGAFHNKYYQSIYDTAENINVSYPEWLSPEEDLNFVTDTAKALADVATVLGRALYELAGGTNFSDTVQADPQTVTRLLYGFLIKANNSWFQSILRQDLRSYLGDGPLQHYIAVSSPTNTTYVVQYALANLTGTVVNLTREQCQDPSKVPSENKDLYEYSWVQGPLHSNETDRLPRCVRSTARLARALSPAFELSQWSSTEYSTWTESRWKDIRARIFLIASKELELITLTVGFGILIFSLIVTYCINAKADVLFIAPREPGAVSY
Regarding B3, the “Aβ42/Aβ40 Ratio” value in experiment [2] was 0.09 normalized to mock transfection.
